In IntAct's records for PubMed 21525957:

B1: Protein phosphatase Slingshot homolog 1 (Homo sapiens), Q8WYL5 (parent)
chain: MALVTLQRSPTPSAASSSASNSELEAGSEEDRKLNLSLSESFFMVKGAALFLQQGSSPQGQRSLQHPHKHAGDLPQHLQVMINLLRCEDRIKLAVRLESAWADRVRYMVVVYSSGRQDTEENILLGVDFSSKESKSCTIGMVLRLWSDTKIHLDGDGGFSVSTAGRMHIFKPVSVQAMWSALQVLHKACEVARRHNYFPGGVALIWATYYESCISSEQSCINEWNAMQDLESTRPDSPALFVDKPTEGERTERLIKAKLRSIMMSQDLENVTSKEIRNELEKQMNCNLKELKEFIDNEMLLILGQMDKPSLIFDHLYLGSEWNASNLEELQGSGVDYILNVTREIDNFFPGLFAYHNIRVYDEETTDLLAHWNEAYHFINKAKRNHSKCLVHCKMGVSRSASTVIAYAMKEFGWPLEKAYNYVKQKRSITRPNAGFMRQLSEYEGILDASKQRHNKLWRQQTDSSLQQPVDDPAGPGDFLPETPDGTPESQLPFLDDAAQPGLGPPLPCCFRRLSDPLLPSPEDETGSLVHLEDPEREALLEEAAPPAEVHRPARQPQQGSGLCEKDVKKKLEFGSPKGRSGSLLQVEETEREEGLGAGRWGQLPTQLDQNLLNSENLNNNSKRSCPNGMEDDAIFGILNKVKPSYKSCADCMYPTASGAPEASRERCEDPNAPAICTQPAFLPHITSSPVAHLASRSRVPEKPASGPTEPPPFLPPAGSRRADTSGPGAGAALEPPASLLEPSRETPKVLPKSLLLKNSHCDKNPPSTEVVIKEESSPKKDMKPAKDLRLLFSNESEKPTTNSYLMQHQESIIQLQKAGLVRKHTKELERLKSVPADPAPPSRDGPASRLEASIPEESQDPAALHELGPLVMPSQAGSDEKSEAAPASLEGGSLKSPPPFFYRLDHTSSFSKDFLKTICYTPTSSSMSSNLTRSSSSDSIHSVRGKPGLVKQRTQEIETRLRLAGLTVSSPLKRSHSLAKLGSLTFSTEDLSSEADPSTVADSQDTTLSESSFLHEPQGTPRDPAATSKPSGKPAPENLKSPSWMSKS

Variants of: B1
Settings: with cof1_human CFL1, P23528
Chain of cof1_human CFL1, P23528 (P23528 whole entry): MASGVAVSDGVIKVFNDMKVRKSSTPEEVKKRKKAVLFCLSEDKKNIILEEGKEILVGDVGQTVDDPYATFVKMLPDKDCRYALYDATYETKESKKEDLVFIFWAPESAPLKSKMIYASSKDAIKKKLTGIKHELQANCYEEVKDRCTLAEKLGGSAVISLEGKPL

Row | Variant | effect of a mutation on the interaction
1 | S402D | disrupting interaction

Variants of: B1
Settings: with cof1_human CFL1, P23528
Remark: another data set of the same source

Row | Variant | effect of a mutation on the interaction
2 | S402E | disrupting interaction
